Consider two molecules from patent US20090304687A1, “METHODS OF USING CD40 BINDING AGENTS” (Seattle Genetics , Inc., priority 2005, published 2009).

The test system of series [1] is Ramos Burkitt's lymphoma cells. Briefly: Combination therapy with CHOP or prednisone, subcutaneous Ramos Burkitt's lymphoma in SCID mice. The series is classed as in vivo, C.B.-17 SCID mice. Here is the method: To model localized lymphoma, 5×10^6 Ramos Burkitt's lymphoma cells were implanted subcutaneously into the right flank of C.B.-17 SCID mice (Harlan, Indianapolis, Ind.). Therapy was initiated when the mean tumor size in each group of five animals was 100 mm^3. CHOP was used for a single course, alone or in combination with humanized CD40 antibody (hu sgn-0; SGN-40), using the following dose schedule: cyclophosphamide at 30 mg/kg, i.v. qld x 1; doxorubicin at 2.475 mg/kg, i.v. qld x 1; vincristine at 0.375 mg/kg, i.v. qld x 1; and prednisone at 0.15 mg/kg, p.o. q1d x 5. The CD40 antibody was administered i.p. at 4 mg/kg q4d x 4 when used alone or in combination with prednisone or CHOP. Tumor size was determined using the formula (L×W^2)/2.
To compare the effect of SGN-40 treatment alone or in combination with CHOP or prednisone, SCID mice were subcutaneously implanted with Ramos cells, and dosed with SGN-40 alone or in combination with CHOP as described above. In addition, prednisone steroid was administered alone (0.15 mg/kg, qld x 5 po) or in combination with SGN-40 (4.0 mg/kg, q4d x 4 ip).

Series [2] has as its system Ramos cells. The series is described as follows: In vitro signaling in Ramos cells, western blot. To be noted: 2% serum, antibody cross-linked with anti-human IgG, 15 min. The series is classed as cell-based. As for the experimental part:
Humanized anti-CD40 antibody (Hu sgn-0; also referred to as SGN-40) binding to CD40^+ NHL cells activates signaling through the ERK1/2 MAP Kinase, p38 MAP Kinase, and NFkB pathways. Ramos cells (cultured in 2% serum) were stimulated with the humanized CD40 antibody cross-linked (XL) with anti-human IgG for 15 min. Activation of signaling was detected by western blot analysis with antibodies recognizing phosphorylation of ERK1/2 (Thr202/Tyr204), p38 (ThrlSO/Tyr182), and AKT (Ser473). NFkB activation was detected by measuring the degradation of IkB-a protein.
In general terms: Immunoblotting shows a protein as a band on a membrane.

For series [3], the system named is Ramos cells. Briefly: Bid upregulation and PARP/caspase-3 cleavage in Ramos cells, western blot. In kind it is cell-based. Here is the method:
In a further study, Ramos cells (2% FBS) were treated with cross-linked humanized CD40 antibody or control hIgG over a 72 hr time course ([…]). Normalized protein extracts were analyzed by western blotting analysis for the pro-apoptotic Bcl-2 family member Bid. […] Referring to FIG. 3B, degradation of the caspase-3/7 substrate poly(ADP-ribose) polymerase (cleaved-PARP) was monitored over time by western blotting with an antibody recognizing PARP cleaved at Asp214. Consistent with the apoptosis-inducing activity of the humanized CD40 antibody, cleavage of caspase-3 and its downstream substrate poly (ADP-ribose) polymerase was detected in NHL cell lines. Antibody-mediated signaling was qualitatively similar to that mediated by trimeric recombinant humanized CD40 ligand (rhCD40L) (data not shown). However, the overall magnitude of signaling was lower with the humanized CD40 antibody compared to rhCD40L, consistent with the partial agonistic properties of SGN-40.

Series [4] deals with Ramos cells. Briefly: In vitro drug combinations with SGN-40, 3H-thymidine proliferation, Combination Index. The series is classed as cell-based.
Experimental: Cells were treated for 72 hours, then labeled with ^3H-thymidine for 4 hours to measure proliferation rates. Dose response curves of drugs alone and in combination with the humanized CD40 antibody were reduced in Excel, and Combination Indices (CI) determined using the Calcusyn analysis package (Biosoft). […] CI values equal to 1.0 indicate an additive integration. For these studies, n=3 unless otherwise indicated.
Series [5] concerns Ramos tumor cells. Briefly: SCID mouse lymphoma xenograft model, subcutaneous Ramos tumor growth. In kind it is in vivo, SCID mice. To be noted: 4 mg/kg/dose i.p. 3 times per week, start 13 days after implant, 14-day study period. Here is the method:
The anti-tumor activity of the humanized CD40 antibody was assayed in a SCID mouse lymphoma xenograft model. Five million Ramos tumor cells were injected subcutaneously into SCID mice (10/group) thirteen days prior to starting drug treatment. Murine CD40 antibody or the humanized S2C6 was given intra-peritoneally 3 times per week (4 mg/kg/dose) with 8 or 5 doses administered. Mice were examined for tumor growth, and tumor volume was measured weekly during the 14-day study period. The results in FIG. 4 show a nearly 9-fold increase in the growth of tumors in control mice, whereas over the same time period, tumor growth in mice treated with either murine CD40 antibody or humanized S2C6 was negligible.

The subject of series [6] is Ramos tumor cells. The series is described as follows: SCID mouse lymphoma xenograft model, intravenous Ramos cells, survival. The series is classed as in vivo. Particulars: 4 mg/kg/dose i.p. two times per week, five doses, 10 mice/group. As for the experimental part:
The efficacy of the humanized CD40 antibody on survival of tumor-bearing mice was assayed in a SCID mouse lymphoma xenograft model. SCID mice (10/group) were inoculated intravenously with one million Ramos tumor cells three days prior to antibody treatment. Mice were treated with murine or humanized CD40 antibody, or an Ig control, administered intraperitoneally two times per week (4 mg/kg/dose) for a total of five doses. The mouse cages were examined daily for mortality.

A further series deals with IM-9 cells. Briefly: IM-9 disseminated xenograft model, survival. Particulars: data not shown. The series is classed as in vivo, SCID mice. Here is the method:
Briefly IM-9 cells (1×10^6 per mouse) were introduced intravenously into SCID mice in a disseminated xenograft model. Animals were treated 3 days post tumor cell injection with either SGN-40(4.0 mg/kg, q2d x9, ip) or prednisone (0.15 mg/kg, qld x5, po) alone, or in combination. Survival data was plotted using a Kaplan-Meier curve (data not shown).

Series [7] is described as follows: Phase I escalated dosing study in multiple myeloma patients, adverse events. In kind it is in vivo, human. As for the experimental part: An open-label, multi-dose, single arm, Phase I protocol initiated at five clinical sites. Initially, enrolled patients, diagnosed with multiple myeloma, received weekly intravenous infusions of a humanized CD40 antibody (hu sgn-0) with a cohort-specific dose level of 0.5, 1, 2 and 4 mg/kg/wk. […] Cohort specific doses of 3, 4, 6 and 8 mg/kg/week were used. The patient eligibility criteria included: patients must have failed at least two prior systemic therapies; at least four weeks since chemotherapy; patients who experience a minimal response (MR) or greater are eligible for a second cycle of therapy.
Patients were monitored for adverse events. […] The drug-loading period reduced the first-dose cytokine release syndrome.

The nature of series [8]: Pharmacokinetics of SGN-40 in patients with multiple myeloma. In kind it is in vivo, human. Particulars: for AUC0-50: Days 0 to 50, 1 compartment model fit; for T ½: after the last infusion, 1 compartment model fit; for Day 36 Cmin: trough 7 days after last dose; for Day 29 Cmax: serum, after last dose, mean ± SD. Here is the method:
The humanized CD40 antibody, SGN-40, was administered twice during the first week and once a week […] for the next 4 weeks to patients with multiple myeloma. […] The peak serum concentration (Cmax) of SGN-40 observed following the last dose on Day 29 and the subsequent trough levels 7 days later on Day 36 are shown for each cohort in Table 6. […] (n/a means not applicable.) […] Data are presented as the mean±standard deviation (N>3) with the exception of Cohort I Day 36 Cmin (N=2), and Cohort II, T1/2 and AUC0-50 (N-1). The patients maintained a plasma SGN-40 concentration of at least about 10 micrograms/ml.

The target of series [9] is CD40 immobilized on microassay plates (UniProt P25942 21-193, limits assumed). The series is described as follows: serially diluted antibody on CD40 immobilized on microassay plates. Here is the method:
Antibodies constructed using these variant light and heavy chain variable domains were analyzed for binding activity. Each antibody was diluted to equivalent concentrations, and then serially diluted. The diluted antibodies were assayed for binding to CD40 immobilized on microassay plates.

Chain of CD40 immobilized on microassay plates (P25942 21-193 limits assumed): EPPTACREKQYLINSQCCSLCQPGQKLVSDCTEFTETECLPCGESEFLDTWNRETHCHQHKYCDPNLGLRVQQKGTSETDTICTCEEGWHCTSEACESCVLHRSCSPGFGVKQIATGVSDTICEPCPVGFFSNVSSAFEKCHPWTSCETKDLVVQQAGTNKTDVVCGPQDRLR

For `C[C@]12C=CC(=O)C=C1CC[C@@H]1[C@@H]2C(=O)C[C@@]2(C)[C@H]1CC[C@]2(O)C(=O)CO` [prednisone], the “effect on tumor growth, administered alone” value in [1] (CHOP single course, prednisone 0.15 mg/kg p.o. q1d x 5) is recorded as “little effect”. The “efficacy in combination with humanized CD40 antibody (SGN-40)” value in [1] (SGN-40 4 mg/kg i.p. q4d x 4 plus CHOP or prednisone) is “greater efficacy”.

B1: hu sgn-0 (antibody, V domains shown)
VH: EVQLVESGGGLVQPGGSLRLSCAASGYSFTGYYIHWVRQAPGKGLEWVARVIPNNGGTSYNQKFKGRFTISRDNSKNTLYLQMNSLRAEDTAVYYCAREGIYWWGQGTLVTVS
VL: DIQMTQSPSSLSASVGDRVTITCRSSQSLVHSNGNTFLHWYQQKPGKAPKLLIYTVSNRFSGVPSRFSGSGSGTDFTLTISSLQPEDFATYYCSQTTHVPWTFGQGTKVEIKR
notes: also called SGN-40; Template
Regarding B1, in the series with Ramos cells [2], the AKT signaling entry was “modestly elevated”. Besides, the “cleavage of caspase-3 and poly (ADP-ribose) polymerase” value in the series with Ramos cells [3] (NHL cell lines, western blot) is on record as “detected”. Further, the Bid protein entry in the series on Ramos cells [3] (Ramos cells 2% FBS, cross-linked antibody, 72 hr time course, 1.0 mg/ml mAb) is reported as “upregulated Bid”. Further, the “overall magnitude of signaling compared to rhCD40L” value in the series with Ramos cells [3] (data not shown) was “lower”. For the same molecule, in the series on Ramos cells [4], the “effect on activity of chemotherapeutic agents” value is “enhances the activity of several chemotherapeutic agents”. The tumor growth entry with Ramos tumor cells [5] was “negligible”. In addition, the “mice alive 90 days after tumor implant” value in the series with Ramos tumor cells [6] is “all ten”. In the series with IM-9 cells (SGN-40 4.0 mg/kg q2d x9 ip, 3 days post tumor cell injection), the survival result is given as “similarly effective in promoting survival”. In the series with IM-9 cells (prednisone 0.15 mg/kg qld x5 po), the “efficacy with or without prednisone” value was “essentially the same in the presence or absence of prednisone”. The “symptoms of first dose-associated cytokine release after amended protocol (intra-patient dose escalation)” value in series [7] (drug-loading period, Table 5 schema) was “markedly reduced”. The antitumor activity entry in series [7] (low doses tested thus far, multiple myeloma patients) is on record as “preliminary evidence for antitumor activity”. In addition, the “TNF-alpha levels in the plasma” value in series [7] (multiple myeloma patients) is recorded as “elevated following the first infusion only”. For the same molecule, in series [7] (multiple myeloma patients), the cytokine release entry is reported as “appeared to trigger cytokine release”. Further, the “adverse event with the first dose” value in series [7] (weekly i.v. infusion, 4 mg/kg level, multiple myeloma patients) is listed as “Grade 3 cytokine release syndrome”. Besides, the AUC0-50 is 653.93 ± 154.65 µg·days/mL in series [8] (Cohort I (1,1,2,3,3,3)), 2086.02 µg·days/mL in series [8] (Cohort II (1,1,2,4,4,4)), 1988.88 ± 439.74 µg·days/mL in series [8] (Cohort III (1,1,2,4,6,6)) and 3441.73 ± 1382.79 µg·days/mL in series [8] (Cohort IV (1,1,2,4,6,8)). The “T ½” value in series [8] (Cohort I (1,1,2,3,3,3)) came out at 64.1 ± 25.9 h; in series [8] (Cohort II (1,1,2,4,4,4)) it was 111 h; in [8] (Cohort III (1,1,2,4,6,6)), 92.4 ± 32.9 h; in [8] (Cohort IV (1,1,2,4,6,8)), 129 ± 44.2 h. For the same molecule, the “Day 36 Cmin” value worked out at 9.94 µg/mL in series [8] (Cohort I (1,1,2,3,3,3), N=2); 69.93 ± 14.08 µg/mL in series [8] (Cohort II (1,1,2,4,4,4)); 41.57 ± 19.22 µg/mL in series [8] (Cohort III (1,1,2,4,6,6)); 112.84 ± 50.40 µg/mL in [8] (Cohort IV (1,1,2,4,6,8)). Moreover, the “Day 29 Cmax” value in series [8] (Cohort I (Day 1/4/8/15/22/29: 1,1,2,3,3,3)) was found to be 45.40 ± 14.31 µg/mL; in series [8] (Cohort II (Day 1/4/8/15/22/29: 1,1,2,4,4,4)), 143.00 ± 27.78 µg/mL; in series [8] (Cohort III (Day 1/4/8/15/22/29: 1,1,2,4,6,6)) it was 149.25 ± 29.34 µg/mL; in series [8] (Cohort IV (Day 1/4/8/15/22/29: 1,1,2,4,6,8)), 244.25 ± 96.00 µg/mL. In series [8] (multiple myeloma patients), the “plasma SGN-40 concentration maintained” value is recorded as “at least 10 micrograms/ml”. Also, the “Binding Data 1” value in [9] is 75.3. For the same molecule, the “Binding Data 2” value in series [9] was 75.3.
